In paper PMC10999750, “Structural basis for nuclear import of bat adeno-associated virus capsid protein” (The Journal of General Virology, 2024):
Where no end group is shown, it is not given here. The star is where a group is joined. FITC = O=C1OC2(c3ccc(O)cc3Oc3cc(O)ccc32)c2ccc(NC(=S)*)cc21; Ahx = NCCCCCC(=O)O

Assays:
[1] = target: T1, Mouse importin α2 lacking the IBB domain (mImpα2DIBB) (mouse, UniProt P52293 70-529); assay: fluorescence polarisation; FITC-tagged peptide ('2 nm' [sic]) with importin two-fold serially diluted from 4.5 µM across 23 wells, 200 µl, GST Buffer A (50 mM Tris, 125 mM NaCl); three independent experiments; conditions: both partners purified
[2] = target: T1, Mouse importin α2 lacking the IBB …; assay: crystal structure; co-purified complex of AAV 09YN Cap-BR and IMPα2; hanging drop, 0.75 M Na citrate, 0.1 M HEPES pH 7.5, 22 °C; 2.4 Å; conditions: both partners purified

Row | Binder | Kd [1] | binding result [2]
1 | Synthetic FITC labelled AAV 09YN Cap-BR peptide (residues 117-167) (also called FITC-tagged AAV 09YN Cap-BR peptide; non-mutated 09YN Cap-BR; source: synthetic peptide (GenScript)) peptide: {FITC-Ahx}-QAKKRVLEPFGLVEGEPEPKKTPSVKRPHASPDSSSGVGKKGDQPARKRLD | 656 nM | 
2 | AAV 09YN Cap-BR (N-terminal domain fragment of AAV 09YN VP1 encompassing basic regions 1-3, residues 112-169) (domain or fragment, not shown: GST, N-terminal, cleaved) ANALFQAKKRVLEPFGLVEGEPEPKKTPSVKRPHASPDSSSGVGKKGDQPARKRLDFG |  | binds
